Patent KR20160003317A (dated 2016)

B1: SC06-429 (scFv)
scFv: QVQLVQSGAEVKNPGESLKISCKGSGYTFTSYWIGWVRQMPGKGLEWMGSIYPGDSDTRYSPSFQGQVTISVDKSISTAYLQWSSLKASDTAMYYCARQYRAGSTTRFDPWGQGTLVTVSSGTGGSGGTGSGTGGSTDVVMTQSPLSLPVTPGEPASISCRSSQSLRHRNGNNYLDWYLQKPGQSPQLLIYLGSNRASGVPDRFSGSGSGTDFTLKISRVEAEDVGIYYCMQALQTPLTFGGGTKVEIK
notes: single-chain phage antibody: the scFv stood on phage in the ELISA
B2: SC06-050 (scFv)
scFv: EVQLVESGPEVKKPGASVKVSCEASGYNLDNYGITWVRQAPGQGLEWLGWISAYNAKTEYGQRLQGRVTMTTDTATSTAYLELRSLRSDDTAVYYCARVLGYRGGWYDEGDAFDVWGQGTMVTVSSGTGGSGGTGSGTGGSTDIQLTQSPSFLSASVGDRVTITCRASQGIRSHLAWYQQKAGKAPKLLIYAASTLQSGVPSRFSGSGSGTEFTLTISSLQPDDFAAYYCQQLNTYPITFGQGTRLEIK
notes: single-chain phage antibody: the scFv stood on phage in the ELISA; also called SC05-050
B3: SC06-049 (scFv)
scFv: QVQLVQSGAEVKKPGESLKISCKGSGYSFTSYWIGWVRQMPGKGLEWMGIIYPGDSDTRYSPSFQGQVTISADKSIGTAYLQWSSLKASDTAMYYCARLFRVRGGHFDSWGQGTLVTVSSGTGGSGGTGSGTGGSTQSALTQPASVSGSPGQSITISCTGTNSDVGGYNYVSWYQQHPGKAPKLLIYDVTNRPSGVSNRFSASKSGNTASLTISGLQAEDEADYYCSSFTSSSTRVFGGGTKLTVL
notes: as for B1
B4: SC06-043 (scFv)
scFv: EVQLVESGAEVKKPGESLKISCKGSGYSFTSYWIGWVRQMPGKGLEWMGIIYPGDSDTRYSPSFQGQVTISADKSISTAYLQWSSLKASDTAMYYCARRYCSGGTCSDGFDIWGQGTMVTVSSGTGGSGGTGSGTGGSTQSALTQPPSASGSPGQSVTISCTGTSSDVGGYNYVSWYQQHPGKAPKLMIYEVSKRPSGVPDRFSGSKSGNTASLTVSGLQAEDEADYYCSSYAGSNNLVFGGGTKLTVL
notes: as for B1
B5: SC06-432 (scFv)
scFv: QLQLQESGPGLVKPSQTLSLTCTVSGGSISSGGYYWSWIRQHPGKGLEWIGYIYYSGSTYYNPSLKSRVTISVDTSKNQFSLKLSSVTAADTAVYYCARERILDRMNDYWGQGTLVTVSSGTGGSGGTGSGTGGSTQSVVTQPPSVSGAPGQRVTISCTGSSSNIGAGYDVHWYQQLPGTAPKLLIYGNSNRPSGVPDRFSGSKSGTSASLAITGLQAEDEADYYCQSSDSSLNILFGGGTKLTVL
notes: as for B1
B6: SC05-179 (scFv)
scFv: EVQLVESGGGLVKPGGSLGLSCAASGFFFSDYSMSWIRQAPGKGLEWLSNISGSGHSTKYAESMRGRITISRDNAKKSLSLQLNSLRAEDTAVYFCVRGGGYRMDVWGQGTTVTVSSGTGGSGGTGSGTGGSTQSALTQPRSVPGSPGQSVTISCTGTSSDVGGYNYVSWYQQHPGKAPKLMIYDVSKRPSGVPDRFSGSKSGNTASLTVSGLQAEDEADYYCSSYAGSNNFVVFGGGTKLTVL
notes: as for B1
B7: SC05-187 (scFv)
scFv: EVQLVQSGAEVKKPGESLKISCKGSGYSFTKYWIGWVRQMPGKGLEWMGIIYPGDSDTRYSPSFQGQVTISADKSISTAYLQWSSLKASDTAMYYCARGSGIATGNSFDSWGQGTLVTVSSGTGGSGGTGSGTGGSTQTVVTQEPSLTVSPGGTVTLTCASSTGAVTSGYYPNWFQQKPGQAPRALIYSTSKKHSWTPARFSGSLLGGRAALTLSGAQPEDEADYYCLLSYGGARVFGGGTKLTVL
notes: as for B1
B8: SC06-016 (scFv)
scFv: QVQLVQSGPEVKKPGASVTVSCKASGYSFSSYGISWVRQAPGQGLEWMGRIIPVGGNTLYSQMFQGRVTMTSDTSTSTVYLELSSLRSEDTAVYFCARDGGRWQFDYWGQGTLVTVSSGTGGSGGTGSGTGGSTDIQLTQSPSSVSASVGDRVTITCRASQGISNWLAWYQQKPGKAPELLIYAASSLQSGVPPRFSGSASGTDFTLTISSLQPEDFATYYCQQSKNFPYTFGQGTKVEIK
notes: as for B1

Target: T1, 송아지 혈청 알부민(BSA) (bovine (printed: 송아지 혈청 알부민), UniProt P02769 25-607)
T1 construct: also called bovine serum albumin
T1 sequence (P02769 25-607 limits assumed): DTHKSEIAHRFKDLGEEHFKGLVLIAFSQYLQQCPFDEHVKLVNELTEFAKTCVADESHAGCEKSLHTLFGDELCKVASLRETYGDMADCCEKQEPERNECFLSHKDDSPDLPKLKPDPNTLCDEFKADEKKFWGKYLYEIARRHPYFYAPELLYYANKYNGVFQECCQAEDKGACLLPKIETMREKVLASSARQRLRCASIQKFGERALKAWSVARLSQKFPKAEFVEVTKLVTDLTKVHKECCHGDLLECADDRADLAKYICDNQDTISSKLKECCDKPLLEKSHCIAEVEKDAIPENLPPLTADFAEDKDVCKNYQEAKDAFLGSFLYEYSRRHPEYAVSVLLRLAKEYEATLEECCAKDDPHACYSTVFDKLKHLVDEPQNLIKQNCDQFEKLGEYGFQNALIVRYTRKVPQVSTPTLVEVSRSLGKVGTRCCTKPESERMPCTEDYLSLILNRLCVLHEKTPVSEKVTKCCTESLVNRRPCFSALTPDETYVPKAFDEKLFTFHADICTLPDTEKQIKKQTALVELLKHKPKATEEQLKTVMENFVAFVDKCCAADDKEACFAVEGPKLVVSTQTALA
Assay: phage ELISA, 1% BSA coated, anti-M13-peroxidase, absorbance 492 nm

Binder	binding result
B1	no binding
B2	no binding
B3	no binding
B4	no binding
B5	no binding
B6	no binding
B7	no binding
B8	no binding
